Assay results: patent US20230357429A1 (JANUX THERAPEUTICS, published 2023)
Read-outs that look alike come from different tables or passages of the source. Values belong to the binder of their own block, whether it stands above or below them. Where no end group is shown, it is not given here.

Assays:
[1] = target: T1, Human TROP2 ECD (31-274 AA), biotinylated (human, UniProt P09758 31-274, biotinylated (site not stated)); experiment: ELISA, biotinylated TROP2 ECD on neutravidin plate, Fab titrated
T1 construct: also called tumor-associated calcium signal transducer 2; Human TROP2-biotin
T1 sequence: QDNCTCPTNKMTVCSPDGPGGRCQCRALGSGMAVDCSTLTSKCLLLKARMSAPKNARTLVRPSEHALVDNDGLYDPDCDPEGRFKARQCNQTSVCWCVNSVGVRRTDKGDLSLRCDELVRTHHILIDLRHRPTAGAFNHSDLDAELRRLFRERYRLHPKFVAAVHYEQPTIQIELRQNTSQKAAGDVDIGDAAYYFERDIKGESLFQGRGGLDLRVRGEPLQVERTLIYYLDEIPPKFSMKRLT

[2] = target: T1, Human TROP2 ECD (31-274 AA), …; experiment: BLI (Octet), dissociation half-life from biotinylated human TROP2 ECD
Procedure: (§1) Kinetic binding was measured using biolayer interferometry (BLI). […] The TBDs diluted in buffer were then associated onto the antigen loaded biosensors. Sensors were then transferred to buffer where the TBD constructs then dissociated from the sensors. Association and dissociation rates were measured in real time using an Octet® instrument.

[3] = target: T1, Human TROP2 ECD (31-274 AA), …; experiment: ELISA, ratio of EC50 to that of TBD-1 wt
Procedure: (§2) Binding was detected using a standard horse radish peroxidase secondary antibody. The concentration of the TBD required to achieve 50% maximal signal (EC₅₀) was calculated.

[4] = target: T1, Human TROP2 ECD (31-274 AA), …; experiment: BLI (Octet), biotinylated human TROP2 ECD on SAX sensor, Fab 6.25-50 nM
Procedure: as §1

[5] = target: T1, Human TROP2 ECD (31-274 AA), …; experiment: ELISA: biotinylated TROP2 captured on neutravidin plate, Fab titrated, HRP secondary antibody
Procedure: as §2

[6] = target: T2, Human TROP2 ECD (31-274 AA), biotinylated (human, UniProt P09758 31-274, biotinylated (site not stated)); experiment: ELISA, Fab on captured biotin-TROP2
T2 construct: captured on neutravidin plates; also called TROP2-biotin; Trop2-biotin
T2 sequence: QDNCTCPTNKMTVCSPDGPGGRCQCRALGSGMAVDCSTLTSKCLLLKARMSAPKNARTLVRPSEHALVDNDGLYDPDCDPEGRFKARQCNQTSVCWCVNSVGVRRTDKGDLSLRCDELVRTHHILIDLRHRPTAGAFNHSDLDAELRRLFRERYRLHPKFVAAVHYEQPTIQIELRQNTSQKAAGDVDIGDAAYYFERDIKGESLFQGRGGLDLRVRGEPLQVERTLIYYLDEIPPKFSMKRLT

[7] = target: T3, Peptide-38 (cysteine pairing not given here; also: biotinylated, site not given here); experiment: ELISA, Fab on captured biotin-peptide
T3 peptide: VDFCSIYHWPVCYV

[8] = target: T4, Peptide-3 (cysteine pairing not given here; also: biotinylated, site not given here); experiment: ELISA, Fab on captured biotin-peptide
T4 peptide: IDFCMLYNWPICAG

[9] = target: T5, Peptide-36 (cysteine pairing not given here; also: biotinylated, site not given here); experiment: ELISA, Fab on captured biotin-peptide
T5 peptide: VDFCYQYGWPICSR

[10] = target: T6, Peptide-64 (cysteine pairing not given here; also: biotinylated, site not given here); experiment: ELISA, Fab on captured biotin-peptide
T6 peptide: PDFCAVYRWPICYQ

[11] = target: T7, Peptide-33 (cysteine pairing not given here; also: biotinylated, site not given here); experiment: ELISA, Fab on captured biotin-peptide
T7 peptide: PDFCYMYNWPVCVT

[12] = target: T8, Peptide-8 (cysteine pairing not given here; also: biotinylated, site not given here); experiment: ELISA, Fab on captured biotin-peptide
T8 peptide: VDFCGLYHWPICYQ

[13] = target: T9, Peptide-42 (cysteine pairing not given here; also: biotinylated, site not given here); experiment: ELISA, Fab on captured biotin-peptide
T9 peptide: IDFCAMYHWPICDT

[14] = target: T10, Peptide-35 (cysteine pairing not given here; also: biotinylated, site not given here); experiment: ELISA, Fab on captured biotin-peptide
T10 peptide: EDFCYWYQWPICSD

[15] = target: T11, Peptide-41 (cysteine pairing not given here; also: biotinylated, site not given here); experiment: ELISA, Fab on captured biotin-peptide
T11 peptide: VDFCGLYHWPICYQVY

[16] = target: T12, Peptide-63 (cysteine pairing not given here; also: biotinylated, site not given here); experiment: ELISA, Fab on captured biotin-peptide
T12 peptide: IDFCLIYNWPVCDT

[17] = target: T13, Peptide-39 (cysteine pairing not given here; also: biotinylated, site not given here); experiment: ELISA, Fab on captured biotin-peptide
T13 peptide: VDFCGLYHWPICYQVD

[18] = target: T14, Peptide-43 (cysteine pairing not given here; also: biotinylated, site not given here); experiment: ELISA, Fab on captured biotin-peptide
T14 peptide: VDFCALYHWPICYQ

[19] = target: T15, Peptide-25 (cysteine pairing not given here; also: biotinylated (site not given here)); experiment: ELISA, Fab on captured biotin-peptide
T15 peptide: VDFCKIYSWPVCHQ

[20] = target: T16, Peptide-62 (cysteine pairing not given here; also: biotinylated, site not given here); experiment: ELISA, Fab on captured biotin-peptide
T16 peptide: IDFCAVYKWPVCQV

[21] = target: T17, Peptide-40 (cysteine pairing not given here; also: biotinylated, site not given here); experiment: ELISA, Fab on captured biotin-peptide
T17 peptide: VDFCYLYSWPICTK

[22] = target: T18, Peptide-37 (cysteine pairing not given here; also: biotinylated, site not given here); experiment: ELISA, Fab on captured biotin-peptide
T18 peptide: VDFCYLYNWPVCSK

[23] = target: T19, Peptide-32 (cysteine pairing not given here; also: biotinylated, site not given here); experiment: ELISA, Fab on captured biotin-peptide
T19 peptide: PDFCYMYGWPICDS

[24] = target: T4, Peptide-3; experiment: ELISA, Fab on captured biotin-peptide
Procedure: (§3) Binding was measured in a standard ELISA format. […] Bound TBDs were detected using a standard horse radish peroxidase conjugate secondary antibody. The ELISA signal was plotted versus the log-scale concentration of TBD. The concentrations of TBD required to observe half maximal binding signal (EC₅₀s) were calculated using Graphpad Prism software.

[25] = target: T20, Peptide-10 (cysteine pairing not given here; also: biotinylated (site not given here)); experiment: ELISA, Fab on captured biotin-peptide
T20 peptide: IDFCAIYQWPVCRS

[26] = target: T21, Peptide-2 (cysteine pairing not given here; also: biotinylated (site not given here)); experiment: ELISA, Fab on captured biotin-peptide
T21 peptide: IDFCAVYKWPVCQV

[27] = target: T22, Peptide-4 (cysteine pairing not given here; also: biotinylated, site not given here); experiment: ELISA, Fab on captured biotin-peptide
T22 peptide: VDFCKIYAWPICGS

[28] = target: T23, Peptide-17 (cysteine pairing not given here; also: biotinylated (site not given here)); experiment: ELISA, Fab on captured biotin-peptide
T23 peptide: IDFCLLYDWPICGR

[29] = target: T8, Peptide-8; experiment: ELISA, Fab on captured biotin-peptide
Procedure: as §3

[30] = target: T24, Peptide-14 (cysteine pairing not given here; also: biotinylated (site not given here)); experiment: ELISA, Fab on captured biotin-peptide
T24 peptide: LDFCKIYDWPICHL

[31] = target: T25, Peptide-5 (cysteine pairing not given here; also: biotinylated, site not given here); experiment: ELISA, Fab on captured biotin-peptide
T25 peptide: VDFCKLYNWPVCQT

[32] = target: T26, Peptide-13 (cysteine pairing not given here; also: biotinylated (site not given here)); experiment: ELISA, Fab on captured biotin-peptide
T26 peptide: VDFCELYRWPICNS

[33] = target: T27, Peptide-12 (cysteine pairing not given here; also: biotinylated (site not given here)); experiment: ELISA, Fab on captured biotin-peptide
T27 peptide: PDFCAVYRWPICYQ

[34] = target: T28, Peptide-20 (cysteine pairing not given here; also: biotinylated (site not given here)); experiment: ELISA, Fab on captured biotin-peptide
T28 peptide: VDFCSFYRWPICET

[35] = target: T29, Peptide-1 (cysteine pairing not given here; also: biotinylated (site not given here)); experiment: ELISA, Fab on captured biotin-peptide
T29 peptide: IDFCAMYQWPICDT

[36] = target: T30, Peptide-6 (cysteine pairing not given here; also: biotinylated, site not given here); experiment: ELISA, Fab on captured biotin-peptide
T30 peptide: IDFCLIYNWPVCDT

[37] = target: T15, Peptide-25; experiment: ELISA, Fab on captured biotin-peptide
Procedure: as §3

[38] = target: T31, Peptide-18 (cysteine pairing not given here; also: biotinylated (site not given here)); experiment: ELISA, Fab on captured biotin-peptide
T31 peptide: MDFCQIYDWPICRL

[39] = target: T32, Peptide-7 (cysteine pairing not given here; also: biotinylated, site not given here); experiment: ELISA, Fab on captured biotin-peptide
T32 peptide: EDFCKLYNWPICYQ

[40] = target: T2, Human TROP2 ECD (31-274 AA), …; experiment: ELISA, Fab on captured biotin-TROP2; remark: listed apart in the source

EC50 [1]: 3.8 nM | t1/2 [2]: 10 min | Fold shift in EC50 relative to wt [3]: 19 fold | Kd [4]: 3.88 nM | EC50 [5]: 3.8 nM
B1: TBD-11 (anti-TROP2 Fab, HC R98A) (Fab, V domains shown)
VH: QVQLQQSGSELKKPGASVKVSCKASGYTFTNYGMNWVKQAPGQGLKWMGWINTYTGEPTYTDDFKGRFAFSLDTSVSTAYLQISSLKADDTAVYFCAAGGFGSSYWYFDVWGQGSLVTVSS
VL: DIQLTQSPSSLSASVGDRVSITCKASQDVSIAVAWYQQKPGKAPKLLIYSASYRYTGVPDRFSGSGSGTDFTLTISSLQPEDFAVYYCQQHYITPLTFGAGTKVEIKR
notes: also called TBD-11 (HC R98A mutant)

EC50 [1]: 0.2 nM | t1/2 [2]: 39 min | Fold shift in EC50 relative to wt [3]: 1 fold | Kd [4]: 0.492 nM | EC50 [5]: 0.2 nM
B2: TBD-12 (anti-TROP2 Fab, HC G99A) (Fab, V domains shown)
VH: QVQLQQSGSELKKPGASVKVSCKASGYTFTNYGMNWVKQAPGQGLKWMGWINTYTGEPTYTDDFKGRFAFSLDTSVSTAYLQISSLKADDTAVYFCARAGFGSSYWYFDVWGQGSLVTVSS
VL: DIQLTQSPSSLSASVGDRVSITCKASQDVSIAVAWYQQKPGKAPKLLIYSASYRYTGVPDRFSGSGSGTDFTLTISSLQPEDFAVYYCQQHYITPLTFGAGTKVEIKR

EC50 [6]: 1.1 nM | EC50 [7]: 2 nM | EC50 [8]: 3 nM | EC50 [9]: 2.2 nM | EC50 [10]: 1.7 nM | EC50 [11]: 1.5 nM | EC50 [12]: 0.6 nM | EC50 [13]: 0.8 nM | EC50 [14]: 7.7 nM | EC50 [15]: 6 nM | EC50 [16]: 1.7 nM | EC50 [17]: 4.6 nM | EC50 [18]: 0.9 nM | EC50 [19]: 2.8 nM | EC50 [20]: 0.9 nM | EC50 [21]: 4.6 nM | EC50 [22]: 1.7 nM | EC50 [23]: 2.1 nM | EC50 [24]: 1.6 nM | EC50 [25]: 1 nM | EC50 [26]: 1.1 nM | EC50 [27]: 1.2 nM | EC50 [28]: 2.6 nM | EC50 [29]: 0.6 nM | EC50 [30]: 5.3 nM | EC50 [31]: 0.9 nM | EC50 [32]: 3.9 nM | EC50 [33]: 0.6 nM | EC50 [34]: 5.3 nM | EC50 [35]: 1 nM | EC50 [36]: 1.4 nM | EC50 [37]: 1.9 nM | EC50 [38]: 7.8 nM | EC50 [39]: 3.6 nM | EC50 [40]: 1.1 nM
B3: TBD-22 (HC D109A) (Fab, V domains shown)
VH: QVQLQQSGSELKKPGASVKVSCKASGYTFTNYGMNWVKQAPGQGLKWMGWINTYTGEPTYTDDFKGRFAFSLDTSVSTAYLQISSLKADDTAVYFCARGGFGSSYWYFAVWGQGSLVTVSS
VL: DIQLTQSPSSLSASVGDRVSITCKASQDVSIAVAWYQQKPGKAPKLLIYSASYRYTGVPDRFSGSGSGTDFTLTISSLQPEDFAVYYCQQHYITPLTFGAGTKVEIKR
notes: Fab; also called HC D109A mutant
